Assay results as given in patent US20210032299A1.
Starred links: 1 amine or outer side, 2 acyl side, 3 side chain; linkers in the order of their positions; H or OH if unused. Non-standard residues stand in square brackets, D forms with d. Groups on a side chain read outwards from the residue. No end group written: not given here. *: point of attachment. C20 diacid = O=C(O)CCCCCCCCCCCCCCCCCCC(=O)*; αMePhe(2-F) = C[C@](N)(Cc1ccccc1F)C(=O)O; γGlu = O=C(O)[C@H](CCC(=O)[*:2])N[*:1]; 4Pal = N[C@@H](Cc1ccncc1)C(=O)O; αMeL = CC(C)C[C@](C)(N)C(=O)O; AEEA = NCCOCCOCC(=O)O; Aib = CC(C)(N)C(=O)O

T1: human glucose-dependent insulinotropic polypeptide (GIP) receptor (human), P48546
T1 chain: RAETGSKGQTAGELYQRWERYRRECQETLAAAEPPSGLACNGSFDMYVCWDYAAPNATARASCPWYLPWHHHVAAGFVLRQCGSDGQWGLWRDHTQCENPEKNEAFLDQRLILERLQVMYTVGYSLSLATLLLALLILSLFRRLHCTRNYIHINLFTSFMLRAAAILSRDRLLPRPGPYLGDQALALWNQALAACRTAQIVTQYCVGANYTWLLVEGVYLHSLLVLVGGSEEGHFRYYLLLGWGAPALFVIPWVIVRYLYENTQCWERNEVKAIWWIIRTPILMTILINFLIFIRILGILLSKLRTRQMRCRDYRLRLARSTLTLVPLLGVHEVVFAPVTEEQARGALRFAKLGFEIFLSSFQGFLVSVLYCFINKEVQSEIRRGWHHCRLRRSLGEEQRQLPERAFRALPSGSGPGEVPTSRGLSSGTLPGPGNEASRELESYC

T2: human GLP-1 receptor (human), P43220
T2 chain: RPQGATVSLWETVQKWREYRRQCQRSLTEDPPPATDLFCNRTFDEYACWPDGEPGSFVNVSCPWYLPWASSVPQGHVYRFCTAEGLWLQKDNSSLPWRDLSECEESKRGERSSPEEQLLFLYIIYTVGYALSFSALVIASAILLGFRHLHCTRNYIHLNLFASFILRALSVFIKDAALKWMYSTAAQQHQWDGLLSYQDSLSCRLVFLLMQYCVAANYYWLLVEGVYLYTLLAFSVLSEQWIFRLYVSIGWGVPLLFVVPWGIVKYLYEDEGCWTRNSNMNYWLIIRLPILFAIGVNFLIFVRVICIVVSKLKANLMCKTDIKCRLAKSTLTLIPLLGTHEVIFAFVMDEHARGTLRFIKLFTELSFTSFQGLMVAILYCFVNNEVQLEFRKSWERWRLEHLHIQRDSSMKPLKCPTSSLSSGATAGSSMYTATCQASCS

B1: Example 119 (peptide)
peptide: H-Y[Aib]EGT[αMePhe(2-F)]ISDYSILLDKIHQ[Aib]DFVE[4Pal]K([AEEA-AEEA-γGlu-C20 diacid])LEGGPSSGAPPPS-NH2
SMILES: CC[C@H](C)[C@H](NC(=O)[C@H](CO)NC(=O)[C@H](Cc1ccc(O)cc1)NC(=O)[C@H](CC(=O)O)NC(=O)[C@H](CO)NC(=O)[C@@H](NC(=O)[C@](C)(Cc1ccccc1F)NC(=O)[C@@H](NC(=O)CNC(=O)[C@H](CCC(=O)O)NC(=O)C(C)(C)NC(=O)[C@@H](N)Cc1ccc(O)cc1)[C@@H](C)O)[C@@H](C)CC)C(=O)N[C@@H](CC(C)C)C(=O)N[C@@H](CC(C)C)C(=O)N[C@@H](CC(=O)O)C(=O)N[C@@H](CCCCN)C(=O)N[C@H](C(=O)N[C@@H](Cc1c[nH]cn1)C(=O)N[C@@H](CCC(N)=O)C(=O)NC(C)(C)C(=O)N[C@@H](CC(=O)O)C(=O)N[C@@H](Cc1ccccc1)C(=O)N[C@H](C(=O)N[C@@H](CCC(=O)O)C(=O)N[C@@H](Cc1ccncc1)C(=O)N[C@@H](CCCCNC(=O)COCCOCCNC(=O)COCCOCCNC(=O)CC[C@H](NC(=O)CCCCCCCCCCCCCCCCCCC(=O)O)C(=O)O)C(=O)N[C@@H](CC(C)C)C(=O)N[C@@H](CCC(=O)O)C(=O)NCC(=O)NCC(=O)N1CCC[C@H]1C(=O)N[C@@H](CO)C(=O)N[C@@H](CO)C(=O)NCC(=O)N[C@@H](C)C(=O)N1CCC[C@H]1C(=O)N1CCC[C@H]1C(=O)N1CCC[C@H]1C(=O)N[C@@H](CO)C(N)=O)C(C)C)[C@@H](C)CC
B2: Example 117 (peptide)
peptide: Y[Aib]EGTFISDYSI[αMeL]LDKIHQ[Aib]DFVEYK([AEEA-AEEA-γGlu-C20 diacid])LEAGPSSGAPPPS-NH2
modifications: N-terminus assumed
SMILES: CC[C@H](C)[C@H](NC(=O)[C@H](CCCCN)NC(=O)[C@H](CC(=O)O)NC(=O)[C@H](CC(C)C)NC(=O)[C@](C)(CC(C)C)NC(=O)[C@@H](NC(=O)[C@H](CO)NC(=O)[C@H](Cc1ccc(O)cc1)NC(=O)[C@H](CC(=O)O)NC(=O)[C@H](CO)NC(=O)[C@@H](NC(=O)[C@H](Cc1ccccc1)NC(=O)[C@@H](NC(=O)CNC(=O)[C@H](CCC(=O)O)NC(=O)C(C)(C)NC(=O)[C@@H](N)Cc1ccc(O)cc1)[C@@H](C)O)[C@@H](C)CC)[C@@H](C)CC)C(=O)N[C@@H](Cc1c[nH]cn1)C(=O)N[C@@H](CCC(N)=O)C(=O)NC(C)(C)C(=O)N[C@@H](CC(=O)O)C(=O)N[C@@H](Cc1ccccc1)C(=O)N[C@H](C(=O)N[C@@H](CCC(=O)O)C(=O)N[C@@H](Cc1ccc(O)cc1)C(=O)N[C@@H](CCCCNC(=O)COCCOCCNC(=O)COCCOCCNC(=O)CC[C@H](NC(=O)CCCCCCCCCCCCCCCCCCC(=O)O)C(=O)O)C(=O)N[C@@H](CC(C)C)C(=O)N[C@@H](CCC(=O)O)C(=O)N[C@@H](C)C(=O)NCC(=O)N1CCC[C@H]1C(=O)N[C@@H](CO)C(=O)N[C@@H](CO)C(=O)NCC(=O)N[C@@H](C)C(=O)N1CCC[C@H]1C(=O)N1CCC[C@H]1C(=O)N1CCC[C@H]1C(=O)N[C@@H](CO)C(N)=O)C(C)C

Assays:
[1] = molecular target: T1, human glucose-dependent insulinotropic …; test: SPA, displacement of [125I]-GIP from hGIPR membranes, 0.1% bacitracin
[2] = molecular target: T2, human GLP-1 receptor (human), P43220; test: SPA, displacement of [125I]-GLP-1 from hGLP-1R membranes, 0.1% bacitracin
[3] = molecular target: human glucagon receptor (human), P47871; test: SPA, displacement of [125I]-Gcg from hGcgR membranes, 0.1% bacitracin
Chain of human glucagon receptor (human), P47871 (P47871 26-477): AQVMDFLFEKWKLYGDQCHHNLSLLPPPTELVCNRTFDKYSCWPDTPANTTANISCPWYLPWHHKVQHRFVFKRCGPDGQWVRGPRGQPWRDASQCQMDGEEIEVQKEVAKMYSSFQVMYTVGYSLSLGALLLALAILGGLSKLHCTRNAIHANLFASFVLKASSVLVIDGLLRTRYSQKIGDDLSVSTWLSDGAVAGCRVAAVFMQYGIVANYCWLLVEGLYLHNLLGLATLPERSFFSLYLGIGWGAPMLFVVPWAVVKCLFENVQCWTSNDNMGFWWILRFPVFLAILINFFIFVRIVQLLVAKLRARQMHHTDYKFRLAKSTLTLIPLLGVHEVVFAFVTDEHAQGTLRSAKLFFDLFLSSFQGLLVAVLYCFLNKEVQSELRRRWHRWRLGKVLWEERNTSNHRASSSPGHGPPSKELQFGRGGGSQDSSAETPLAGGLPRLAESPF

Binder	Ki [1]	Ki [2]	Ki [3]
B1	0.129 nM	723 nM	68.8 nM
B2	0.0722 nM	591 nM	685 nM
